# Assay: PVA hydrogel durability in phosphate buffered saline pH 7.4, integrity checked by periodic inversion
# Assay type: physicochemical
# Conditions: additive at 10%; 4% borate; PBS pH 7.4, room temperature
# Protocol: The effect of the PVA (99% hydrolysis rate; average molecular weight 100K) concentration on gel durability was evaluated by first aliquotting 0.2 mL of a 4% borate solution into bottom of 14 mL tube. Then 1.8 mL of various PVA solutions of 2-5% concentrations were added by vigorous injection through a 3 mL syringe with an 18G needle. Three tubes were prepared for of each concentration and cured at room temperature for one hour to insure complete polymerization. 8 mL of phosphate buffered saline, pH 7.4, were added to each tube, covered and incubated at room temperature. The integrity of the gels was checked by periodic inversion.
# The effect of additives on the durability of the PVA gel (99% hydrolysis rate; average molecular weight 100K) was evaluated by first aliquotting 0.2 mL of a 4% borate solution into bottom of 14 mL tube. Then 1.8 mL of PVA (5%) and additive containing solutions of 2-5% concentrations were added by vigorous injection through a 3 mL syringe with an 18G needle. Three tubes were prepared for of each concentration and cured at room temperature for one hour to insure complete polymerization. 8 mL of phosphate buffered saline, pH 7.4, were added to each tube, covered and incubated at room temperature. The integrity of the gels was checked by periodic inversion. […]
substance,measurement,value
albumin,Effect of additive on durability of 5% PVA hydrogels,increase the durability
